Article PMC11947611, “Functional and structural characterization of Staphylococcus aureus N‐acetylglucosamine 1‐phosphate uridyltransferase (GlmU) reveals a redox‐sensitive acetyltransferase activity” (Protein Science : A Publication of the Protein Society, 2025)

Biological target: the molecule itself
Experiment: crystal structure; cocrystals of WT SaGlmU with AcCoA and citrate (PDB 9DQF) and with UTP, CoA and Glc 1-P (PDB 9DR4); reducing conditions, 0.5 mM DTT; 200 mM lithium citrate tribasic tetrahydrate, 15-20% PEG 3350; one monomer in the asymmetric unit, trimer assembly

B1: Staphylococcus aureus N-acetylglucosamine 1-phosphate uridyltransferase (GlmU), wild type (enzyme, Staphylococcus aureus NCTC 8325)
chain: MRRHAIILAAGKGTRMKSKKYKVLHEVAGKPMVEHVLESVKGSGVDQVVTIVGHGAESVKGHLGERSLYSFQEEQLGTAHAVQMAKSHLEDKEGTTIVVCGDTPLITKETLVTLIAHHEDANAQATVLSASIQQPYGYGRIVRNASGRLERIVEEKDATQAEKDINEISSGIFAFNNKTLFEKLTQVKNDNAQGEYYLPDVLSLILNDGGIVEVYRTNDVEEIMGVNDRVMLSQAEKAMQRRTNHYHMLNGVTIIDPDSTYIGPDVTIGSDTVIEPGVRINGRTEIGEDVVIGQYSEINNSTIENGACIQQSVVNDASVGANTKVGPFAQLRPGAQLGADVKVGNFVEIKKADLKDGAKVSHLSYIGDAVIGERTNIGCGTITVNYDGENKFKTIVGKDSFVGCNVNLVAPVTIGDDVLVAAGSTITDDVPNDSLAVARARQTTKEGYRK
notes: GlmU of Staphylococcus aureus NCTC 8325; the glmU gene was amplified by PCR from genomic DNA; the domains described in the structure span Res. 1-228 (uridyltransferase), 229-251 (linker) and 252-450 (acetyltransferase); Plasmid 6xHis-SaGlmU-pET-16b (NcoI/BamHI); No removal of the tag is described; By intact mass the N-terminal methionine is removed; also called SaGlmU; WT SaGlmU
stoichiometry N: 3
